{"source": "patent US9926375B2", "about": "“Anti-endoglin antibodies and uses thereof” (Tracon Pharmaceuticals, Inc., priority 2014, dated 2018)", "key": {"[1]": {"test_system": "BLM-induced pulmonary fibrosis model mice", "assay": "Bleomycin-induced pulmonary fibrosis model", "type": "in vivo, mouse", "conditions": "vs isotype-control antibody group (isotype-control vs disease control group); day 21; Bonferroni, P<0.05", "experimental": "Pathogen-free 7 weeks old female C57BL/6J mice were obtained from Japan SLC, Inc. (Japan). At day 0, 60 mice were induced to develop pulmonary fibrosis by a single intratracheal administration of bleomycin sulphate (BLM, Nippon Kayaku, Japan) in saline at a dose of 3 mg/kg, in a volume of 50 μL per animal using Microsprayer® (Penn-Century, USA).\nBLM-induced pulmonary fibrosis model mice were randomized into 4 groups of 12 mice based on the body weight on the day before the start of treatment.\nGroup 3 (M1043 Antibody): Twelve BLM-induced pulmonary fibrosis model mice were intravenously administered vehicle supplemented with M1043 at a dose of 10 mg/kg twice weekly at day 7, 10, 14 and 17.\nGroup 4 (TRC105 human/mouse chimeric antibody): Twelve BLM-induced pulmonary fibrosis model mice were intravenously administered vehicle supplemented with TRC105 at a dose of 10 mg/kg twice weekly at day 7, 10, 14 and 17.\nGroup 5 (BIBF1120 inhibitor for Idiopathic Pulmonary Fibrosis—positive control, Boehringer Ingelheim): Twelve BLM-induced pulmonary fibrosis model mice were orally administered 1% CMC supplemented with BIBF1120 at a dose of 100 mg/kg once daily from day 7 to 21. […]\nHistological analysis of lung sections was conducted by practitioners who are not aware of the Group identity. Masson's Trichrome staining is conducted and an Ashcroft Score estimate was determined. […]"}, "mouse endoglin": {"target": "T1, mouse endoglin (Mus musculus, UniProt Q63961)", "T1 construct": "purchased R&D Systems 1320-EN-025", "T1 sequence (Q63961 27-581 limits assumed)": "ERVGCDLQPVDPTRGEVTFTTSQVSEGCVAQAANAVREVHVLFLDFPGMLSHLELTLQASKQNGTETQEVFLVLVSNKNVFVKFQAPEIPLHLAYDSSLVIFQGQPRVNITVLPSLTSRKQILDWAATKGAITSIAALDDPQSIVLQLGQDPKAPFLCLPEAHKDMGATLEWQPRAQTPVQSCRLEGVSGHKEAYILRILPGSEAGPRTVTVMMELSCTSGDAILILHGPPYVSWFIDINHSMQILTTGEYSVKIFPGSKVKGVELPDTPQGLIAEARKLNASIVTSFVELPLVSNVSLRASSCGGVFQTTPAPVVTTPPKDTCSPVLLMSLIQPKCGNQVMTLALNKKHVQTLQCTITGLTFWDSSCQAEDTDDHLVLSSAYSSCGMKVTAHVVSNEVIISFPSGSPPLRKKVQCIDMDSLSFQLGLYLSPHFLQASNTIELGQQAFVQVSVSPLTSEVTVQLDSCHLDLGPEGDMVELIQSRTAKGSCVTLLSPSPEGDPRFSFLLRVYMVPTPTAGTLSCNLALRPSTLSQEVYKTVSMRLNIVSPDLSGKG", "assay": "ELISA binding of M1043 antibody to mouse endoglin", "conditions": "10 μg/ml to 0.014 μg/ml; plate coated with mouse endoglin 1 μg/ml", "experimental": "An ELISA was established to determine the binding of M1043 antibody to mouse endoglin as follows: Nunc Immuno MaxiSorp 96 well flat bottom plates (Fisher, Cat. No. DIS-971-030J) were coated with mouse endoglin (R&D Systems, Cat. No. 1320-EN-025) at 1 μg/ml in PBS overnight at 4° C. The following day the plate was washed three times with PBST before blocking with PBST/3% Marvel at room temperature for 1 hour. After blocking, the plate was washed three times with PBST, and varying concentrations (10 μg/ml to 0.014 μg/ml in three-fold serial dilutions) of either M1043 or an irrelevant rat IgG1 (Affymetrix, Cat. No. 14-4301) in PBST/3% Marvel were added to the plate and incubated for 1 hour at room temperature. Binding of the antibodies was detected via anti-rat IgG peroxidase (Sigma, Cat. No. A9037) and TMB single solution substrate (Invitrogen, Cat. No. 00-2023). The reaction was stopped by adding 3 M HCl and OD450 nm values were measured on a Dynex MRX TCII plate reader."}}, "data": [{"molecule": "M1043: rat IgG1 antibody that binds mouse endoglin and competitively inhibits mouse BMP binding; VH SEQ ID NO: 124, VL SEQ ID NO: 125 (antibody, V domains shown) VH: QVQLQQSGAELVKPGSSVKISCKASGYTFTSYDMHWIKQQPGNGLEWIGWIYPGNGNTKYNQKFNGKATLTADKSSSTAYMQLSSLTSEDSAVYFCARGKFGVGDYWGQGVMVTVSS VL: DTVLTQSPALAVSPGERVSISCRASEGVNSYMHWYQQKPGQQPKLLIYIASNLASGVPARFSGSGSGTDFTLTIDPVEADDTATYFCQQSWNDPYTFGAGTKLELKR", "values": [{"measurement": "Ashcroft score, comparison between groups", "setting": "[1]", "value": "no significant difference"}, {"measurement": "Binding to mouse endoglin (ELISA)", "setting": "mouse endoglin", "value": "binds specifically to mouse endoglin"}]}]}
